Experimental data taken from IntAct's records for PubMed 20094029.

B1: BRCT-containing protein 1 (Schizosaccharomyces pombe (strain ATCC 38366 / 972)), Q10337 (parent)
chain: MLAAESSNKELFIKNDGKALSFPYDWKLATHVICDDFSSPNVQEGSKRSLRLAKTNWIRDCVDKNTLLNYSFYSCNPYLLFKGICASSCQIDSYQSSLIDDALETFGGRFSKGLMKSMTHLFTYSGMGAKCKKVLDKPSLSIKLIHPQWLLDCLQFGQLIDQDPYLFPNPSYKKNDSSISKAEPTSLFRNVLHGKRIYFSNDLNLPTNFRHSLQKFSVGIGAKIAESINDCDIFIGLKRDTIEFNLASNKNTTIGTISWLLNLFVLGSWKSPLLNALHYPFPSVGFLKDQMVAVTNYTDAARIYLEKLLLACGATYTKDLKPTNTLLIAASSYGQKYGAAKVWNIPTVHHSWLYSSFKNLSSQAFTDFPVPLDDSYMDFIFPCPLNVEKGSFEDTLKSSLTKGNSEVLLDDLSDPSVSSIKGNKTNEELEKEFKSTSDNFGKHIILTSSFSNQSADKGSSLAAEDDRNDEGSTITGVNRELQDEGRLEIDAKSSKTNTPPSPLLVGTPSKESLKEASSDDELPVLATKLVDNVIKEKSPLSLTPKVVVPSHKETYTDEKKLIDELDRVNPLNSSQLLRSKRKSAATALSMLQNVIMPDVLAFEREKKRRQTHRSVSSGEVSRESSESRNTNAKASKRVYITFTGYDKKPSIDNLKKLDMSITSNPSKCTHLIAPRILRTSKFLCSIPYGPCVVTMDWINSCLKTHEIVDEEPYLLNDPEKELELGCTLESALKRARAQGPSLLEDYVVYLTSKTVAPENVPAVISIVKSNGGVCSTLNVYNKRLARHLEDGNVVLITCNEDSHIWTNFLDNASQNKTIFLQNYDWLIKTVLRQEIDVNDRIADEFARAV

Variants of: B1
Details: with h2a1_schpo hta1, P04909

effect of a mutation on the interaction | Variant
disrupting interaction | T643A
